Laboratory results published in article PMC6930178.

Target: HIV-1 clade C 96ZM651 gp140 Env trimer (HIV-1 clade C isolate 96ZM651)
Test: native gel or EMSA

## HIV-1 clade C 96ZM651 gp140 Env trimer (domain or fragment)
  stoichiometry N: 3
